From publication PMC3985873 come the findings set out here.

Numbering of substitutions follows the chain as printed. Read-outs that look alike come from different tables or passages of the source.

Assay in all cases: smFRET
Data set [1] concerns the target T1, MutS-E41A (Thermus aquaticus, UniProt Q56215 1-811, E41A).
T1 sequence: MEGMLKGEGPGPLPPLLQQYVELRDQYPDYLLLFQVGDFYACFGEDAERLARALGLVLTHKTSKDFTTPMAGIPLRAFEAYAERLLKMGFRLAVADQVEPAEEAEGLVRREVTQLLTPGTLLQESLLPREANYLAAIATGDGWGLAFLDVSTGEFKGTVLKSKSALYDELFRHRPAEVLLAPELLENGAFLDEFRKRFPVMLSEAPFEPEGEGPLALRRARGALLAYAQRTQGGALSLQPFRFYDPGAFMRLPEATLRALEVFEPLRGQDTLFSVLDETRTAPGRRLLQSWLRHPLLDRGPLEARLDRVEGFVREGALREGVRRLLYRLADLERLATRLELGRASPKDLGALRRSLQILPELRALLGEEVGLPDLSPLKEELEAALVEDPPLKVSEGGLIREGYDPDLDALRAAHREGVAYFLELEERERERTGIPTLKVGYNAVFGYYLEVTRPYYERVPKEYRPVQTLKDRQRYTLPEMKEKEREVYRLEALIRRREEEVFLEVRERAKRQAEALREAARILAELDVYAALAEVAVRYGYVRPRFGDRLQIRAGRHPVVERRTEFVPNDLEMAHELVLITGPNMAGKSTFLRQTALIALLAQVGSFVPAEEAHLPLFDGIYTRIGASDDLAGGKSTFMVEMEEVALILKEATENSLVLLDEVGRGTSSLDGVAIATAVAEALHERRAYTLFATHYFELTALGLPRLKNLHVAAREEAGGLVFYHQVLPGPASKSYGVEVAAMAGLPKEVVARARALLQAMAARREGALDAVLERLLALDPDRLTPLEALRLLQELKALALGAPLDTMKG

Data set [2] deals with T2, MutS (Thermus aquaticus, UniProt Q56215 1-811).
T2 sequence: T1 sequence with A41E

In data set [3] the target is T2, MutS. The source holds these as a separate data set.
Data set [4] addresses T1, MutS-E41A. This is another data set of the same source.

B1: GT mismatch DNA (A1/B1/C1-GT) (dsDNA)
DNA 1: TGTCGGGGCTGGCTTAAGGTGTGAAATACCTCATCTCGAGCGTGCCGATA
DNA 2: TATCGGCACGTTCGAGATG
DNA 3: AGGTATTTCACACCTTAAGCCAGCCCCGACA
Turning to B1, the binding result in data set [1] and in data set [2] was “binds” each time.

B2: T-bulge DNA (A1/B1/C2-T-bulge) (dsDNA)
DNA 1: B1 DNA 1
DNA 2: TATCGGCACGTCTCGAGATG
DNA 3: B1 DNA 3
Regarding B2, the binding result in data set [3] and in data set [4] was “binds” each time.
